# Measurements reported in the supplement of paper PMC9112550, “Optimization of the antimicrobial peptide Bac7 by deep mutational scanning” (BMC Biology, 2022).
# Test system: Escherichia coli TOP10
# Assay: shrunken log2 fold change of peptide-encoding DNA abundance (4.5 h post-induction vs induction); higher = less antimicrobial activity (less host growth inhibition)
# Conditions: time post-induction: 4.5 h; library: site-saturation at positions 5, 18, 19, 20
# 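Note: peptides expressed intracellularly from a pBAD plasmid library in pooled LB shake-flask culture, induced with 0.3% L-arabinose, DNA abundance read by NGS, three biological replicates, DESeq2 with apeglm shrinkage.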
row,Sequence,shrunken log2 fold change
1,RRIRMRPPRLPRPRPRPKECPRP,-0.0981
2,RRIRQRPPRLPRPRPRPQWCPRP,0.142
3,RRIRKRPPRLPRPRPRPIKFPRP,-0.131
4,RRIRTRPPRLPRPRPRPNFAPRP,0.00158
5,RRIRPRPPRLPRPRPRPQCMPRP,-0.312
6,RRIRTRPPRLPRPRPRPLTRPRP,0.252
7,RRIRKRPPRLPRPRPRPYPQPRP,0.0235
8,RRIRERPPRLPRPRPRPGDIPRP,-0.072
9,RRIRVRPPRLPRPRPRPNHQPRP,-0.221
10,RRIRARPPRLPRPRPRPCTWPRP,0.108
11,RRIRGRPPRLPRPRPRPKGLPRP,0.016
12,RRIRHRPPRLPRPRPRPHWFPRP,-0.198
13,RRIRTRPPRLPRPRPRPTPPPRP,0.589
14,RRIRSRPPRLPRPRPRPNKQPRP,-0.221
15,RRIRIRPPRLPRPRPRPSHIPRP,-0.879
16,RRIRTRPPRLPRPRPRPNWSPRP,0.0464
17,RRIRTRPPRLPRPRPRPIRCPRP,0.0185
18,RRIRMRPPRLPRPRPRPPDSPRP,0.198
19,RRIRVRPPRLPRPRPRPGNDPRP,-0.0387
20,RRIRSRPPRLPRPRPRPMLVPRP,-0.0894
21,RRIRIRPPRLPRPRPRPCMMPRP,-0.654
22,RRIRPRPPRLPRPRPRPSDKPRP,-0.264
23,RRIRGRPPRLPRPRPRPVICPRP,0.252

row,Sequence,shrunken log2 fold change
1,RRIRDRPPRLPRPRPRPFFSPRP,0.115
2,RRIRQRPPRLPRPRPRPYLHPRP,-0.117
3,RRIRYRPPRLPRPRPRPACGPRP,-0.145
4,RRIRSRPPRLPRPRPRPHFEPRP,-0.325
5,RRIRHRPPRLPRPRPRPDTKPRP,0.162
6,RRIRFRPPRLPRPRPRPHANPRP,-0.16
7,RRIRKRPPRLPRPRPRPDPEPRP,-0.0797
8,RRIRWRPPRLPRPRPRPGDKPRP,-0.00136
9,RRIRVRPPRLPRPRPRPSWGPRP,0.0232
10,RRIRFRPPRLPRPRPRPIWQPRP,-0.146
11,RRIRMRPPRLPRPRPRPNICPRP,0.021
12,RRIRGRPPRLPRPRPRPTPEPRP,0.917
13,RRIRKRPPRLPRPRPRPNPDPRP,0.383
14,RRIRMRPPRLPRPRPRPIWRPRP,0.128
15,RRIRARPPRLPRPRPRPIASPRP,-0.0816
16,RRIRSRPPRLPRPRPRPDTYPRP,-0.713
17,RRIRARPPRLPRPRPRPNQGPRP,0.392
18,RRIRDRPPRLPRPRPRPDHEPRP,-0.148
19,RRIRNRPPRLPRPRPRPEIIPRP,-0.00607
20,RRIRYRPPRLPRPRPRPIMEPRP,-0.0134
21,RRIRVRPPRLPRPRPRPYGYPRP,-1.16
22,RRIRTRPPRLPRPRPRPQQQPRP,-0.0474
23,RRIRGRPPRLPRPRPRPGAWPRP,1.56

row,Sequence,shrunken log2 fold change
1,RRIRERPPRLPRPRPRPFMDPRP,-0.243
2,RRIRWRPPRLPRPRPRPKAQPRP,0.0185
3,RRIRIRPPRLPRPRPRPKRDPRP,-0.106
4,RRIRVRPPRLPRPRPRPQRHPRP,-0.0604
5,RRIRCRPPRLPRPRPRPPFNPRP,-0.137
6,RRIRNRPPRLPRPRPRPFTNPRP,0.00408
7,RRIRQRPPRLPRPRPRPPILPRP,-0.13
8,RRIRERPPRLPRPRPRPQVLPRP,-0.0121
9,RRIRGRPPRLPRPRPRPATNPRP,0.766
10,RRIRERPPRLPRPRPRPESAPRP,0.056
11,RRIRQRPPRLPRPRPRPPYRPRP,0.158
12,RRIRGRPPRLPRPRPRPKLQPRP,0.991
13,RRIRWRPPRLPRPRPRPWEYPRP,-0.0716
14,RRIRDRPPRLPRPRPRPALDPRP,1.05
15,RRIRERPPRLPRPRPRPHYCPRP,-0.0425
16,RRIRGRPPRLPRPRPRPMVHPRP,-0.0529
17,RRIRLRPPRLPRPRPRPIHMPRP,-0.0933
18,RRIRMRPPRLPRPRPRPVWWPRP,-0.0717
19,RRIRPRPPRLPRPRPRPTWFPRP,0.0698
20,RRIRPRPPRLPRPRPRPEEWPRP,-0.0099
21,RRIRERPPRLPRPRPRPCHWPRP,-0.0135
22,RRIRDRPPRLPRPRPRPVKKPRP,-0.0221
23,RRIRNRPPRLPRPRPRPPVHPRP,-0.148

row,Sequence,shrunken log2 fold change
1,RRIRHRPPRLPRPRPRPACNPRP,-0.155
2,RRIRMRPPRLPRPRPRPINRPRP,-0.0561
3,RRIRLRPPRLPRPRPRPTYIPRP,-0.304
4,RRIRRRPPRLPRPRPRPQMVPRP,-0.0843
5,RRIRDRPPRLPRPRPRPRPSPRP,0.329
6,RRIRRRPPRLPRPRPRPQYIPRP,0.0837
7,RRIRLRPPRLPRPRPRPYIGPRP,-0.129
8,RRIRHRPPRLPRPRPRPTTHPRP,0.0467
9,RRIRDRPPRLPRPRPRPPVGPRP,0.348
10,RRIRNRPPRLPRPRPRPFRQPRP,0.0231
11,RRIRTRPPRLPRPRPRPFETPRP,-0.117
12,RRIRMRPPRLPRPRPRPGMAPRP,1.19
13,RRIRRRPPRLPRPRPRPWIFPRP,0.0818
14,RRIRTRPPRLPRPRPRPKSNPRP,-0.448
15,RRIRSRPPRLPRPRPRPHRNPRP,-0.489
16,RRIRTRPPRLPRPRPRPCSHPRP,0.13
17,RRIRNRPPRLPRPRPRPSKTPRP,-0.454
18,RRIRERPPRLPRPRPRPWPMPRP,0.00819
19,RRIRRRPPRLPRPRPRPYQIPRP,0.022
20,RRIRDRPPRLPRPRPRPEYWPRP,0.0559
21,RRIRDRPPRLPRPRPRPIPDPRP,-0.0185
22,RRIRRRPPRLPRPRPRPELFPRP,1.06
